Square brackets hold non-standard residues; d marks the D form. Ends that are not written are not given here. pS = N[C@@H](COP(=O)(O)O)C(=O)O
Assays:
[1] = target: T1, TMEM97 (S2R) containing HEK293T membranes (Homo sapiens, UniProt Q5BJF2); test: Radioligand binding/competition assay with [3H]-DTG (UNC PDSP); details: secondary radioligand binding assay; hot ligand [3H]-DTG
T1 construct: expressed in transfected cells; host or cells: HEK293T (transient overexpression; membranes prepared by UNC PDSP)

Candida albicans = details: cited from earlier work
[2] = test system: Human corneal epithelial cells; test: Cell viability of BAK-treated human corneal epithelial cells; assay type: cell-based; details: benzalkonium chloride (BAK) treatment
Text: (§1) Apoptosis. […] BAK and hOsm are standard inducers of corneal epithelial and neuronal cell death and toxicity, phenomena which are associated with ocular surface pain and chronic pain syndromes.

[3] = test system: Human corneal epithelial cells; test: Calcium Green-2 calcium signaling in human corneal epithelial cells; assay type: cell-based
Description: Calcium Signaling. Human corneal epithelial cells were treated with Hst1 or Hst5, stained with Calcium Green-2, and relative fluorescence intensity was monitored at 1, 2 and 4 hours. […] This normalization of cellular calcium levels seen after toxicity from benzalkonium chloride treatment is analogous to toxic effects seen in chronic pain and other conditions. As such, histatin peptides may of use in the amelioration of chronic pain.

human corneal epithelium = test: Hyperosmolarity-induced apoptotic signals (Caspase 3/7); assay type: cell-based; details: 450 mOsm
Text: as §1

[4] = target: T2, Recombinant full-length TMEM97 (from HEK293 cells, OriGene) (UniProt Q5BJF2 1-176); test: SPR, TMEM97 immobilized on CM5 chip
T2 construct: Bought protein, said to be full-length; Immobilized on a CM5 chip; also called MAC30

[5] = target: T3, Synthetic TMEM97 (108-143) peptide; test: SPR
T3 construct: Synthetic peptide; also called (predicted) luminal segment
T3 peptide: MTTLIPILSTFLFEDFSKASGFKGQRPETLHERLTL

[6] = target: T4, Synthetic TMEM97 (144-176) peptide; test: SPR
T4 construct: Synthetic peptide; also called (predicted) cytoplasmic segment
T4 peptide: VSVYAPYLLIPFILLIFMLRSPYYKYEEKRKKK

[7] = target: T5, Synthetic TMEM97 (108-176) peptide; test: SPR
T5 construct: Synthetic peptide; also called full C-terminal synthetic TMEM97
T5 peptide: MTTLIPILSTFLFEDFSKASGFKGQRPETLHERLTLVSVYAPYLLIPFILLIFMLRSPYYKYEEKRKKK

[8] = target: T6, GST-TMEM97 (108-176), recombinant from wheat germ (Abnova) (UniProt Q5BJF2 108-176); test: SPR
T6 construct: not shown: GST tag

[9] = target: T5, Synthetic TMEM97 (108-176) peptide; test: SPR, synthetic TMEM97 (108-176) immobilized, Hst1 as analyte; SPR; synthetic TMEM97 (108-176)
[10] = target: T5, Synthetic TMEM97 (108-176) peptide; test: ITC, Hst1 titrated into synthetic TMEM97 (108-176); ITC, not SPR; TMEM97 (108-176)
[11] = target: T6, GST-TMEM97 (108-176), recombinant from …; test: SPR, GST-TMEM97 (108-176) immobilized on CM5 chip, Hst1 as analyte; GST-tagged wheat-germ TMEM97 (108-176); SPR
[12] = target: T5, Synthetic TMEM97 (108-176) peptide; test: ITC, Hst1 titrated into synthetic TMEM97 (108-176)
[13] = target: T4, Synthetic TMEM97 (144-176) peptide; test: SPR, synthetic TMEM97 (144-176) immobilized, Hst1 as analyte; SPR; synthetic TMEM97 (144-176)
[14] = target: T4, Synthetic TMEM97 (144-176) peptide; test: ITC, Hst1 titrated into the C-terminal TMEM97 peptide (taken as 144-176)
[15] = target: T4, Synthetic TMEM97 (144-176) peptide; test: ITC, Hst1 titrated into the C-terminal TMEM97 peptide (taken as 144-176); ITC, not SPR; C-terminal fragment taken as 144-176

T1 sequence (Q5BJF2 whole entry, species assumed): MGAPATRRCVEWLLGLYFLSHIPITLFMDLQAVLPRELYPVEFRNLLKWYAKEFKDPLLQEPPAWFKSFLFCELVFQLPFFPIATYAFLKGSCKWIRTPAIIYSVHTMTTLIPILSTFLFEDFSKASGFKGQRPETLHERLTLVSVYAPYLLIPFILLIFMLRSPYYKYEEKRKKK

CC(C)C[C@H](NC(=O)[C@H](Cc1ccc(O)cc1)NC(=O)[C@H](CC(N)=O)NC(=O)[C@H](CO)NC(=O)[C@H](CCCNC(=N)N)NC(=O)[C@H](Cc1ccc(O)cc1)NC(=O)CNC(=O)[C@H](CCCNC(=N)N)NC(=O)[C@H](Cc1c[nH]cn1)NC(=O)[C@H](CO)NC(=O)[C@H](Cc1c[nH]cn1)NC(=O)[C@H](Cc1c[nH]cn1)NC(=O)[C@H](CCCCN)NC(=O)[C@H](CCC(=O)O)NC(=O)[C@H](Cc1c[nH]cn1)NC(=O)[C@H](Cc1ccccc1)NC(=O)[C@H](CCCCN)NC(=O)[C@H](CCCNC(=N)N)NC(=O)[C@H](CCCCN)NC(=O)[C@H](Cc1ccc(O)cc1)NC(=O)CNC(=O)[C@H](Cc1c[nH]cn1)NC(=O)[C@H](Cc1c[nH]cn1)NC(=O)[C@H](CCCNC(=N)N)NC(=O)[C@H](CCCCN)NC(=O)[C@H](C)NC(=O)[C@H](Cc1c[nH]cn1)NC(=O)[C@H](CO)NC(=O)[C@@H](N)CC(=O)O)C(=O)N[C@@H](Cc1ccc(O)cc1)C(=O)N[C@@H](CC(=O)O)C(=O)N[C@@H](CC(N)=O)C(=O)O [Hst3]
Ki [1]: 1090 nM

AKRHHGYKRKFH [Histatin P-113, histatin-derived antimicrobial peptide]
fungicidal activity (Candida albicans): fungicidal activity

C[C@H](NC(=O)[C@H](Cc1c[nH]cn1)NC(=O)[C@H](CO)NC(=O)[C@@H](N)CC(=O)O)C(=O)N[C@@H](CCCCN)C(=O)N[C@@H](CCCNC(=N)N)C(=O)N[C@@H](Cc1c[nH]cn1)C(=O)N[C@@H](Cc1c[nH]cn1)C(=O)NCC(=O)N[C@@H](Cc1ccc(O)cc1)C(=O)N[C@@H](CCCCN)C(=O)N[C@@H](CCCNC(=N)N)C(=O)N[C@@H](CCCCN)C(=O)N[C@@H](Cc1ccccc1)C(=O)N[C@@H](Cc1c[nH]cn1)C(=O)N[C@@H](CCC(=O)O)C(=O)N[C@@H](CCCCN)C(=O)N[C@@H](Cc1c[nH]cn1)C(=O)N[C@@H](Cc1c[nH]cn1)C(=O)N[C@@H](CO)C(=O)N[C@@H](Cc1c[nH]cn1)C(=O)N[C@@H](CCCNC(=N)N)C(=O)NCC(=O)N[C@@H](Cc1ccc(O)cc1)C(=O)O [Hst5]
BAK-induced loss of cell viability [2]: abrogated | calcium signaling (relative fluorescence intensity) ([3]; 1, 2 and 4 hours): increases calcium signaling | elevated calcium levels after benzalkonium chloride ([3]; cells treated with 0.001% BAK): reduced elevated calcium levels | hyperosmolarity-induced apoptotic signals (Caspase 3/7) (human corneal epithelium): abrogates the effects of toxic hyperosmolarity | Ki [1]: 582 nM

B1: Hst1 scrambled peptide (Hst1SP) (peptide)
peptide: HYHKFHRYYDPGSNLYKEHNHGFHHGYKDEFRRE[pS]RDS
notes: Synthetic scrambled control of Hst1; also called scrambled peptide control version of Hst1
binding result [4]: no binding

DSHEKRHHGYRRKFHEKHHSHREFPF (not fully specified (residue 2); ends and bridges not checked, Fragment of Hst1) [Hst1(1-26)]
binding result [5]: no binding | Kd [6]: 1700 nM | Kd [7]: 1300 nM | Kd [8]: 2100 nM

DSHEKRHHGYRRKF (not fully specified (residue 2); ends and bridges not checked, Fragment of Hst1) [Hst1(1-14)]
binding result [5]: no binding | binding result [6]: no binding | binding result [7]: no binding

B2: Histatin 1 (Hst1) (peptide)
peptide: D[pS]HEKRHHGYRRKFHEKHHSHREFPFYGDYGSNYLYDN
notes: Synthetic linear peptide made by Fmoc solid-phase synthesis; also called Hst1(1-38); H1
Kd [9]: 2800 nM | Kd [10]: 890 nM | Kd [11]: 1600 nM | ΔH [12]: -4.9 kcal/mol | ΔS [12]: 11.6 cal/mol K | binding result [5]: no binding | Kd [6]: 2400 nM | Kd [7]: 2400 nM | Kd [8]: 1500 nM | Kd [13]: 2700 nM | ΔH [14]: -790 kcal/mol | ΔS [14]: -2280 cal/mol K | Kd [15]: 460 nM

Source: US20230190870A1, “Method for Treating Lysosomal Storage Diseases with Histatin Peptides” (THE BOARD OF TRUSTEES OF THE UNIVERSITY OF ILLINOIS, priority 2020, published 2023)
